Experimental data published in the supplement of paper PMC7877785.
± gives the uncertainty stated by the source.

Experiment: self-splicing fitness, log relative to wild type (ln ratio); higher = more splicing; Tetrahymena group I intron in knt gene, E. coli kanamycin selection, DiMSum; sequences stand for … in CUCUCU…GGAGGGAAAAGUUAUCAGGCAUGCACCUGGUAGCUAGUCUUUAAACCAAUAGAUUGCAUCGGUUUAAAAGGCAAGACCGUCAAAUUGCGGGAAAGGGGUCAACAGCCGUUCAGUACCAAGUCUCAGGGGAAACUUUGAGAUGGCCUUGCAAAGGGUAUGGUAAUAAGCUGACGGACAUGGUCCUAACCACGCAGCCAAGUCCUAAGUCAACAGAUCUUCUGUUGAUAUGGAUGCAGUUCACAGACUAAAUGUCGGUCGGGGAAGAUGUAUUCUUCUCAUAAGAUAUAGUCGGACCUCUCCUUAAUGGGAGCUAGCGGAUGAAGUGAUGCAACACUGGAGCCGCUGGGAACUAAUUUGUAUGCGAAAGUAUAUUGAUUAGUUUUGGAGUACUCGUGGUCG
Method in brief: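 DiMSum derived fitness as the error-weighted combination of fold changes across replicates, kanamycin versus no kanamycin, normalised to wild type. E. coli BL21(DE3) held the library, which randomised all eight P1ex-region intron nucleotides within the knt kanamycin-resistance gene on pET-22b(+). Six replicate transformations grew overnight at 37°C or 30°C on LB agar with or without 25 μg/mL kanamycin, also containing 100 μg/mL carbenicillin, 50 μM IPTG and 0.2% rhamnose, and pooled colonies were amplicon-sequenced on an Illumina HiSeq 2500.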

| Sequence | self-splicing fitness (ln) (30 °C) | self-splicing fitness (ln) (37 °C) |
| --- | --- | --- |
| GUUGAGCAAUAUUACGACGC | -1.95 ± 0.22 | 1.05 ± 0.26 |
| CGAGAGCAAUAUUACGAUCC | -3.95 ± 0.46 | -2.36 ± 0.28 |
| UAUAAGCAAUAUUACGCGGA | -2.14 ± 0.18 | -0.954 ± 0.16 |
| GAAGAGCAAUAUUACGCGCC | -3.56 ± 0.47 | -1.43 ± 0.26 |
| ACUAAGCAAUAUUACGAAAA | -2.26 ± 0.33 | -1.72 ± 0.36 |
| GUCAAGCAAUAUUACGGAUC | -2.77 ± 0.1 | -1.09 ± 0.093 |
| UCGAAGCAAUAUUACGGCGA | -0.741 ± 0.12 | -0.539 ± 0.17 |
| AGUCAGCAAUAUUACGAUUA | 0.011 ± 0.11 | -0.381 ± 0.15 |
| UGUGAGCAAUAUUACGCAAC | -2.24 ± 0.28 | -2.4 ± 0.46 |
| GCGUAGCAAUAUUACGGAUC | -0.345 ± 0.079 | 0.215 ± 0.088 |
| CGUAAGCAAUAUUACGGUGU | -4.11 ± 0.25 | -3.24 ± 0.21 |
| GCACAGCAAUAUUACGUCGG | -1.72 ± 0.1 | -1.09 ± 0.13 |
| GGCGAGCAAUAUUACGACAG | -3.57 ± 0.32 |  |
| AACCAGCAAUAUUACGAAGC | -3.37 ± 0.13 | -0.929 ± 0.099 |
| CCGUAGCAAUAUUACGAGGG | -3.25 ± 0.18 | -0.352 ± 0.17 |
| ACAAAGCAAUAUUACGCGUC | -4.08 ± 0.31 | -2.09 ± 0.22 |
| CUUAAGCAAUAUUACGGGAG | -3.42 ± 0.27 | -2.67 ± 0.27 |

| Sequence | self-splicing fitness (ln) (30 °C) | self-splicing fitness (ln) (37 °C) |
| --- | --- | --- |
| CAGUAGCAAUAUUACGCGUA | -2.89 ± 0.27 | -1.64 ± 0.19 |
| AAUUAGCAAUAUUACGCUUA | -0.993 ± 0.12 | 0.247 ± 0.14 |
| CGAGAGCAAUAUUACGGAAG | -3.57 ± 0.28 | -2.54 ± 0.23 |
| UAUCAGCAAUAUUACGUUGU | -3.84 ± 0.19 | -2.62 ± 0.21 |
| CUGUAGCAAUAUUACGUCGA | -2.71 ± 0.35 | -1.06 ± 0.35 |
| AACCAGCAAUAUUACGUUUA | -1.01 ± 0.062 | -0.649 ± 0.074 |
| GGCGAGCAAUAUUACGGACC |  | -0.87 ± 0.4 |
| GCGGAGCAAUAUUACGAUAU | -2.17 ± 0.14 | -2.02 ± 0.18 |
| CCUAAGCAAUAUUACGCACG | -3.1 ± 0.41 | -1.46 ± 0.23 |
| GUAGAGCAAUAUUACGAGUU | -2.39 ± 0.2 | -1.85 ± 0.2 |
| AGGCAGCAAUAUUACGUUAA | -2.6 ± 0.15 | -1.88 ± 0.13 |
| GCUUAGCAAUAUUACGACCA | -1.45 ± 0.2 | -1.29 ± 0.38 |
| GUGCAGCAAUAUUACGAAAG | -1.58 ± 0.18 | -2.38 ± 0.27 |
| CUUUAGCAAUAUUACGGUUU | -2.79 ± 0.21 | -2.71 ± 0.24 |
| CUCGAGCAAUAUUACGAAAC | -3.52 ± 0.33 | -1.99 ± 0.33 |
| CGUAAGCAAUAUUACGUUGA | -3.23 ± 0.19 | -2.58 ± 0.18 |
| CACCAGCAAUAUUACGCAGA | -3.13 ± 0.13 | -2.57 ± 0.13 |
